The target in assay [1] is T1, IL2Rβγ-Fc (UniProt P14784 27-240; P31785 23-262, limits assumed).
T1 construct: From Beijing Zhidao Biotechnology, loaded on ProA sensors; also called IL2Rβγ receptors; complex of β and γ receptor subunits; not shown: Fc
T1 sequence (looked up) 1: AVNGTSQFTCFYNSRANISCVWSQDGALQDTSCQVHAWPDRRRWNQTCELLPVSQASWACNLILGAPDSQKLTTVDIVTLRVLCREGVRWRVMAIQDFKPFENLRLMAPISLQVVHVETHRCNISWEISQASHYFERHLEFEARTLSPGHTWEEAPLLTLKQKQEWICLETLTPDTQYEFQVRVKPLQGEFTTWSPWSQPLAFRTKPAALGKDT
T1 sequence (looked up) 2: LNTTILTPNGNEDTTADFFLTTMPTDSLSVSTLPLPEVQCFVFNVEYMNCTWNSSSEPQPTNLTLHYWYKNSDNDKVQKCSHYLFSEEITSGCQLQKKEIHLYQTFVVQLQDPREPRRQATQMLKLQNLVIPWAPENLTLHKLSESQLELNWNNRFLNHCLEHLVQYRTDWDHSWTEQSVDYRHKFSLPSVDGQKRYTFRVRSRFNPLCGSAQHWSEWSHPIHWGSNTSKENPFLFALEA
Kind of assay: BLI (Fortebio Octet RED96), IL2Rβγ-Fc loaded on ProA sensor, analyte 2.5-40 nM as labelled; R2 0.998. As to the method: (§1) The buffer formulation was as follows: 10 mM HEPES, 150 mM sodium chloride, 3 mM EDTA, 0.1% BSA and 0.05% Tween 20. The ProA sensor was purchased from Pall Fortebio (Cat. No. #18-5010). The HISIK sensor was purchased from Pall Fortebio (Cat. No. #18-5120). The BLI equipment was Octet RED96 from Pall Fortebio. Data acquisition and analysis were carried out using software Data acquisition 11.0 and Data Analysis 11.0, respectively.
(§2) IL2Rβγ-Fc was diluted with the buffer solution to a concentration of 10 μg/mL, and then added to column 2 of the 96-well assay plate. The program was set to Loading, 600 s.
(§3) 8 ProA sensors were respectively placed in A-H of column 1 of the sensor holder. In the software Data acquisition 11.0, the detection conditions were set as follows. 1 Pre-wetting: Baseline, 60 s, Position: Column 1. 2 Cycle detection: column 2: loading, 600 s; column 4: Baseline 1, 60 s; columns 5-9: Association, 200 s; column 10: Dissociation, 600 s; column 11: neutralization; and column 12: regeneration.
On the technique in general: BLI is a label-free optical method that tracks binding on a fibre tip over time.

The target in assay [2] is T1, IL2Rβγ-Fc. Description: BLI (Fortebio Octet RED96), IL2Rβγ-Fc loaded on ProA sensor, analyte 2.5-40 nM as labelled; R2 0.9984. As to the method:
as §1, §2, §3

Assay [3] has as its target T2, IL2Rα-his (UniProt P01589 22-217, limits assumed).
T2 construct: From Beijing Zhidao Biotechnology, loaded on HIS1K sensors; also called IL2Rα receptor; α receptor subunit; not shown: his tag
T2 sequence (looked up): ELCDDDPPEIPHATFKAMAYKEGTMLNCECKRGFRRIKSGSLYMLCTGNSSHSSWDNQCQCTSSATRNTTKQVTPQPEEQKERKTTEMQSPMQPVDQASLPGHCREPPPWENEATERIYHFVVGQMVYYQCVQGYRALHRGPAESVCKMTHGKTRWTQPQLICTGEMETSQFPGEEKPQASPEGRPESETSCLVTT
Kind of assay: BLI (Fortebio Octet RED96), IL2Rα-his loaded on HIS1K sensor, analyte at 100 nM. As to the method:
as §1
IL2Rα-his was diluted with the buffer solution to a concentration of 10 μg/mL, and then added to column 3 of the 96-well assay plate. The program was set to Loading, 600 s.

In assay [4] the target is T1, IL2Rβγ-Fc. Description: BLI (Fortebio Octet RED96), IL2Rβγ-Fc loaded on ProA sensor, analyte 1.25-40 nM; R2 0.9972. As for the experimental part: as §2
(§4) They were added to columns 5-9 of the 96-well assay plate, respectively. The program was set to Association, 200 s. The buffers were added to columns 1, 4, 10 and 11 of the 96-well assay plate, and the glycine with pH 1.7 was added to column 12. The loading volume of the above samples or solutions was 200 μL.
as §3

Assay [5] deals with T1, IL2Rβγ-Fc. Description: BLI (Fortebio Octet RED96), IL2Rβγ-Fc loaded on ProA sensor, analyte 1.25-40 nM; R2 0.9953. As to the method:
as §2, §4, §3

Where a chain is given by its changes, count along the chain named. Names and notes keep the numbering of the source.

B1: IL-2 Mutant 1, IL-2 (M39C, V69C, C125A) (ligand)
chain: APTSSSTKKTQLQLEHLLLDLQMILNGINNYKNPKLTRCLTFKFYMPKKATELKHLQCLEEELKPLEECLNLAQSKNFHLRPRDLISNINVIVLELKGSETTFMCEYADETATIVEFLNRWITFAQSIISTLT
notes: Designed to form an intramolecular disulfide bond between Cys39 and Cys69; not shown: HPC4 tag at the C-terminus
With B1, in assay [1], the Kd (commonly the free concentration of one partner at which half of the binding sites on the other are occupied at equilibrium, for simple one-to-one binding) came to 560 pM.

B2: IL-2 Mutant 3, IL-2 (F44C, P65C, C125A) (ligand)
chain: B1 chain with C39M, F44C, P65C, C69V
notes: Designed to form an intramolecular disulfide bond between Cys44 and Cys65; not shown: HPC4 tag at the C-terminus
B2 displayed an equilibrium dissociation constant (Kd) in assay [2] of 660 pM. This lies in the sub-nanomolar range.

B3: IL-2 Mutant 4, IL-2 (F42C, V69C, C125A) (ligand)
chain: B1 chain with C39M, F42C
notes: Designed to form an intramolecular disulfide bond between Cys42 and Cys69; not shown: HPC4 tag at the C-terminus
B3: the binding result in assay [3] is listed as “no binding (tested: 100 nM)”. In assay [4], this molecule yielded a Kd of 268 pM.

B4: IL-2 Mutant 2, IL-2 (F44C, E62C, C125A) (ligand)
chain: B1 chain with C39M, F44C, E62C, C69V
notes: Designed to form an intramolecular disulfide bond between Cys44 and Cys62; not shown: HPC4 tag at the C-terminus
B4: the binding result in assay [3] is given as “no binding (tested: 100 nM)”. Further, the Kd in assay [5] was 675 pM.

The values above are taken from patent US20220363731A1 (LETO LABORATORIES, published 2022).
